According to publication PMC11238716 (ACS Medicinal Chemistry Letters, 2024):

Biological target: the molecule itself
Experiment: SEC

B1: 6 × HisMBP-SREBP-1a (1–198) (domain or fragment, human, UniProt P36956-1 1-198, looked up)
chain: MDEPPFSEAALEQALGEPCDLDAALLTDIEDMLQLINNQDSDFPGLFDPPYAGSGAGGTDPASPDTSSPGSLSPPPATLSSSLEAFLSGPQAAPSPLSPPQPAPTPLKMYPSMPAFSPGPGIKEESVPLSILQTPTPQPLPGALLPQSFPAPAPPQFSSTPVLGYPSPPGGFSTGSPPGNTQQPLPGLPLASPPGVPP
B1: binds.
